Consider 14 molecules from patent US20160208018A1 (JUNO THERAPEUTICS, published 2016).

Assay [1] deals with T1, Human ROR1 (receptor tyrosine kinase-like orphan receptor 1) (human, UniProt Q01973 30-937).
T1 construct: also called hROR1; K562/ROR1
Briefly: flow cytometry on ROR1-expressing K562 and CHOK1 cells, mean (n = 9).

Assay [2] has as its target T1, Human ROR1 (receptor tyrosine …). Briefly: flow cytometry competition, competitor R12 scFv on ROR1-expressing cells, mean (n = 5). As for the experimental part: (§1) Assays also were performed to assess competition of the clones with the reference antibody (R12 scFv), for binding to ROR1-expressing cells. VH clones were titrated against 2 nM Myc-R12 on ROR1/K562 cells and competition assessed with an anti-Myc-Alexa647 secondary antibody, and the half maximal inhibitory concentration (IC₅₀) determined for respective clones.
(§2) Assays also were performed to assess competition (measured as half maximal inhibitory concentration (IC₅₀)) of the clones with the R12 scFv reference antibody for binding to ROR1-expressing cells, as described in Example 1. Percent (%) max ROR1 and % max competition, as compared to the R12 scFv reference antibody, were determined as described in Example 1.

Assay [3] has the same target. Briefly: flow cytometry on ROR1-expressing cells; predicted plateau relative to R12 scFv = 100%. As to the method: (§3) Additionally, percent (%) maximum (max) binding to ROR1-expressing cells and % max competition with the reference antibody (R12 scFv) were calculated. Percent max binding and competition values were calculated based on predicted plateaus (measured by Prism® using four parameter non-linear regression), relative to values for R12 scFv binding and inhibition, respectively, assigned as 100% in each study.
as §2

Assay [4] has the same target. Briefly: competition with R12 scFv on ROR1-expressing cells; predicted plateau relative to R12 scFv = 100%. As for the experimental part: as §3, §2
The target is the same in assay [5]. Briefly: flow cytometry on ROR1-expressing K562 and CHOK1 cells, mean (n = 4).
Assay [6] has the same target. Briefly: flow cytometry competition, competitor R12 scFv on ROR1-expressing cells, mean (n = 4). As for the experimental part:
as §1, §2

Assay [7] has the same target. Briefly: flow cytometry on ROR1-expressing K562 and CHOK1 cells, mean (n = 2).
The target is the same in assay [8]. Briefly: flow cytometry on ROR1-expressing cells; predicted plateau relative to R12 scFv = 100%. As to the method: as §3
This is another data set of the same source.

Assay [9] shares this target. Briefly: flow cytometry competition, competitor 2 nM Myc-R12 scFv on ROR1/K562 cells, mean (n = 2). As to the method: as §1
Assay [10] has the same target. Briefly: competition with Myc-R12 scFv on ROR1/K562 cells; predicted plateau relative to R12 scFv = 100%. As for the experimental part:
as §1, §3

For assay [11] the target is unchanged. Briefly: flow cytometry on ROR1-expressing K562 and CHOK1 cells (n = 1).
For assay [12] the target is unchanged. Briefly: flow cytometry competition, competitor 2 nM Myc-R12 scFv on ROR1/K562 cells, mean (n not given). As to the method:
as §1

Assay [13] concerns the target T2, Mouse ROR1 (mouse, UniProt Q9Z139 30-937).
T2 construct: also called mROR1; K562/mouse ROR1
Briefly: inferred from IFN-gamma release of CAR T cells on K562/mouse ROR1 cells. As to the method:
Cytokine release was assessed following incubation of the CAR-expressing cells with either K562/human ROR1 (hROR1) or K562/mouse ROR1 (mROR1) antigen-expressing cells. Transduced CD8+ T cells were co-cultured with antigen-expressing cells at a single effector to target (E:T). The co-cultured cells were incubated for about 24 hours, and then supernatants were collected for measurement of IFN-γ using a cytokine immunoassay.

Assay [14] addresses T1, Human ROR1 (receptor tyrosine …). Briefly: flow cytometry on ROR1-expressing K562 and CHOK1 cells, mean (n = 7).
For assay [15] the target is unchanged. Briefly: flow cytometry competition, competitor 2 nM Myc-R12 scFv on ROR1/K562 cells, mean (n = 8). As to the method: as §1
Assay [16] shares this target. Briefly: flow cytometry competition, competitor R12 scFv on ROR1-expressing cells, mean (n = 3). As to the method: as §1, §2
Assay [17] has the same target. Briefly: flow cytometry competition, competitor 2 nM Myc-R12 scFv on ROR1/K562 cells, mean (n = 3). As to the method:
as §1

Residue numbers refer to the chain shown, from its start. In names and notes the source's numbering stands. Like-named read-outs stand apart in the source and are kept apart here.

T1 sequence (Q01973 30-937): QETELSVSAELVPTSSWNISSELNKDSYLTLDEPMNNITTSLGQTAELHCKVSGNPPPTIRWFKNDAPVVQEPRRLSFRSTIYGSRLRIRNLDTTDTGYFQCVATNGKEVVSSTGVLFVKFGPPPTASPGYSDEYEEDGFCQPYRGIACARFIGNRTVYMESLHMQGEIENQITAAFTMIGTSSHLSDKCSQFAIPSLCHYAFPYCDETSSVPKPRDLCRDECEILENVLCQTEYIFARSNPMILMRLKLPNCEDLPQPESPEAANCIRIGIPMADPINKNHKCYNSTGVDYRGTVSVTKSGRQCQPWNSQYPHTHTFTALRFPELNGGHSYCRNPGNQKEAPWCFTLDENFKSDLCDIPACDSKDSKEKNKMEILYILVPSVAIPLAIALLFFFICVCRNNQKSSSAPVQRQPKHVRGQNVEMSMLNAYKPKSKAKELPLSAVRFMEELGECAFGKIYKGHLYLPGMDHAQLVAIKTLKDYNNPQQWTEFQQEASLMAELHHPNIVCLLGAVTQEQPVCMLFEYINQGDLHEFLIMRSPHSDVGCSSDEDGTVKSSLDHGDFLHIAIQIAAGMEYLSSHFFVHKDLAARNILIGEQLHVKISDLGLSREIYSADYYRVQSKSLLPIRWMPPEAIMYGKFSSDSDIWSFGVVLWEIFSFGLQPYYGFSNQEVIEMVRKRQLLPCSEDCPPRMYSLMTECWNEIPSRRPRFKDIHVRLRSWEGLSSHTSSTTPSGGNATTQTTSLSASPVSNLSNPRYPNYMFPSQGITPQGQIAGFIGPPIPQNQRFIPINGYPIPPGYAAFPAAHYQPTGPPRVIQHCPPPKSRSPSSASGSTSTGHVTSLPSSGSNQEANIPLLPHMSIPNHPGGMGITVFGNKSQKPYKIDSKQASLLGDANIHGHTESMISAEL
T2 sequence (Q9Z139 30-937): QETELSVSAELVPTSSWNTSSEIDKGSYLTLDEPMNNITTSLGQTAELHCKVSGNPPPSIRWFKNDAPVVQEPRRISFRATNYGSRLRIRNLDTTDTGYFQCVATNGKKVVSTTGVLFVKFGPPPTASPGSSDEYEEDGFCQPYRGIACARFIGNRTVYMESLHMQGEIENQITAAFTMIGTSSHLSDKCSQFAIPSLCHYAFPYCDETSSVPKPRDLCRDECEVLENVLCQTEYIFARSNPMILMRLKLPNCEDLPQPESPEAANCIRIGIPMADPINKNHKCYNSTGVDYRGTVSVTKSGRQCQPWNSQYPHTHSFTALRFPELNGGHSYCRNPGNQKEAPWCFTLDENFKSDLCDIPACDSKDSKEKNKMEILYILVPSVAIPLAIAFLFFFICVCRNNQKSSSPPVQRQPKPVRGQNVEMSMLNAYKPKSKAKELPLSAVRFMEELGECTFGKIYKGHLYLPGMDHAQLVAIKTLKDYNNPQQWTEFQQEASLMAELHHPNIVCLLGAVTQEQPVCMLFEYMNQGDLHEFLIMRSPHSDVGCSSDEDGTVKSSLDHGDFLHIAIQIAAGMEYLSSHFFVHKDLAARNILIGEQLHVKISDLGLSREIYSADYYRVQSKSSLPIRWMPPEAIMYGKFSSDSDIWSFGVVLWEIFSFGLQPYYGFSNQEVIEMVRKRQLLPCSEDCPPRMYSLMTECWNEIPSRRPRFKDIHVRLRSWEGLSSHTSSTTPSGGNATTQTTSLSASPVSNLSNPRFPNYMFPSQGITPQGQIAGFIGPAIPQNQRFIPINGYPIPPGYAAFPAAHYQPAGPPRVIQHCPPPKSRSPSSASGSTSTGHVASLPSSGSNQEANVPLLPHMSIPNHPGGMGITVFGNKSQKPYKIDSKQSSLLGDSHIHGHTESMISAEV

B1: Clone 20 scFv (scFv)
scFv: QVTLKESGGGLVKPGGSLRLSCAASGFTFSNAWMSWVRQAPGKGLEWVGRIKSKTDGGTTDYAAPVKGRFTISRDDSKNTLYLQMNSLKTEDTAVYYCARDFGRWSYYFDYWSQGTLVTVSSNIQMTQSPSSLSASVGDRVTITCRASQSINKWLAWYQQKPGKAPKLLIHDASTLESGVPSRFSGSGSGTEFTLTISSLHPDDSATYYCQQLKSRPLSFGEGTKLEIK
notes: 262 differs only at the VH N-terminus; Printed without a linker
As to B1, the EC50 in assay [1] is 2.6 nM. The 50% inhibitory concentration (IC50) in assay [2] came out at 4.7 nM. Moreover, the “% Max Binding” value in [3] was 97%. Further, in [4], the “% Max Competition” value is 77%.

B2: Clone 40 scFv (scFv)
scFv: QVTLKESGGGLVKPGGSLRLSCAASGFTFSNAWMSWVRQAPGKGLEWVGRIKSKTDGGTTDYAAPVKGRFTISRDDSKNTLYLQMNSLRTEDTAVYYCARDFGRWSYYFDYWSQGTLVTVSSQPVLTQPHSVSESPGKTVTISCTRSSGNIASNFVQWYQRRPDGATTNVIYEDTQRPSGVSGRFSGSIDRSSNSASLTISGLRAEDEADYYCQSYDGRNLMFGGGTKVTVL
notes: the two differ at the VH N-terminus; Printed without a linker
As for B2, the response in assay [5] was half-maximal at 3.2 nM (EC50). The IC50 in assay [6] stood at 22.8 nM. For the same molecule, in assay [3], the “% Max Binding” value was 81%. For the same molecule, the “% Max Competition” value in [4] is 70%.

B3: Clone V86 (VHH)
VHH: QVQLLESGGGLVQPGGSLRLSCAASGFTFSSYAMSWVRQAPGKGLEWVSAISGSGGSTYYADSVKGRFTISRDNSKNTLYLQMNSLRAEDTAVYYCARVIFGVVNIPDYWGQGTLVTVSS
notes: human VH-only single-domain antibody, no VL
As for B3, the concentration for a half-maximal effect (EC50) in assay [7] worked out at 97.7 nM. This lies in the double-digit nanomolar range.

B4: Clone V95 (VHH)
VHH: QVQLVESGGGLVKPGGSLRLSCAASGFTFSNAWMSWVRQAPGKGLEWVGRIKSKTDGGTTDYAAPVKGRFTISRDDSKKTLYLQMNSLKTEDTAVYYCARGSGELRFLESYYFDYWGQGTLVTVSS
notes: as for B3
Regarding B4, in [7], the EC50 worked out at 35.5 nM. Further, the “% Max Binding” value in assay [8] is 61%. The same molecule showed an IC50 in [9] of 19 nM. The “% Max Competition” value in assay [10] is 36%.

B5: Clone V224 (VHH)
VHH: QVQLVESGGGLVKPGGSLRLSCAASGFTFINAWMSWVRQAPGKGLEWVGRIKSKTDGGTTDYAAPVKGRFTISRDDSKNTLYLQMNSLKTEDTAVYYCARTYSSSWYESLLFDYWGQGTLVTVSS
notes: as for B3
In [11], B5 gave a concentration for a half-maximal effect (EC50) of 46.2 nM. The “% Max Binding” value in assay [8] is 74%. Moreover, the “% Max Competition” value in assay [10] was 32%. Also, the IC50 in assay [12] came out at 94.6 nM.

B6: Clone V102 (VHH)
VHH: QVQLVESGGGLVQPGRSLRLSCTASGFTFGDYAMSWVRQAPGKGLEWVGFIRSKAYGGTTEYAASVKGRFTISRDDSQSIAYLQMDSLKTEDTAVYYCAKVGPSWDYYFDYWGQGTLVTVSS
notes: as for B3
B6 displayed an EC50 in assay [7] of 129 nM.

B7: Clone V316 (VHH)
VHH: EVQLVESGGGLVRPGGSLRLSCAASGLTFSRTWMSWVRQAPGKGLEWVASINDDGSEKYYVDSVKGRFTISRDNARNSLYLQMNRLRAEDTAVYYCARVDSERFLEWYYFDYWGQGTLVTVSS
notes: as for B3
In the case of B7, the EC50 in assay [11] was determined as 28.7 nM. In addition, the “% Max Binding” value in [8] was 78%. Also, in [9], the concentration for half-maximal inhibition (IC50) worked out at 28.8 nM. Besides, the “% Max Competition” value in assay [10] is 37%.

B8: CAR containing Clone V70 VH-only antigen-binding domain (other)
chain: QVQLLESGGGLVQPGRSLRLSCTASGFTFGDYAMSWVRQAPGKGLEWVSSISGSGRSTDHADYVKGRFTISRDNSKNTVYLQMNRLRAEDTAVYYCAKVSNYEYYFDYWAQGTLVTVSS
notes: Chimeric antigen receptor expressed on primary human CD8+ T cells; tEGFR marker is split off by T2A; also called V70 CAR; not shown: Ig-derived hinge only spacer, human CD28-derived transmembrane domain, human 4-1BB-derived intracellular signaling domai
For B8, the binding result in assay [13] is recorded as “binds”.

B9: Clone V70 (VHH)
VHH: B8 chain
notes: as for B3
In assay [14], B9 gave a concentration giving a half-maximal response (EC50) of 3.1 nM. In [8], the “% Max Binding” value was 92%. This molecule also registered a concentration for half-maximal inhibition (IC50) in [15] of 38.2 nM. For the same molecule, in assay [10], the “% Max Competition” value is 92%.

B10: Clone 48 scFv (scFv)
scFv: QVTLKESGGGLVKPGGSLRLSCAASGFTFSNAWMSWVRQAPGKGLEWVGRIKSKTDGGTTDYAAPVKGRFTISRDDSKNTLYLQMNSLKTEDTAVYYCARDFGRWSYYFDYWSQGTLVTVSSGGGGSGGGGSGGGGSQSVLTQPSSVSGTPGQRVTISCSGSSSNIGSNYVYWYQQLPGTAPKLLIYRNNQRPSGVPDRFSGSKSGTSASLAISGLRSEDEADYYCAAWDDSLSGVVFGGGTKLTVL
In turn, B10 came in with an EC50 in [5] of 9.2 nM. The molecule also yielded a concentration for half-maximal inhibition (IC50) in [16] of 53.7 nM. Moreover, the “% Max Binding” value in assay [3] is 69%. Moreover, in assay [4], the “% Max Competition” value was 55%.

B11: CAR containing Clone 48 scFv (VH-VL) (other)
chain: B10 scFv
notes: Chimeric antigen receptor expressed on primary human CD8+ T cells; tEGFR marker is split off by T2A; also called 48 CAR; not shown: Ig-derived hinge only spacer, human CD28-derived transmembrane domain, human 4-1BB-derived intracellular signaling domai
On to B11, for which the binding result in assay [13] is reported as “binds”.

B12: CAR containing Clone V353 VH-only antigen-binding domain (other)
chain: QVTLKESGGGLVKPGGSLRLSCAASGFTFSNAWMSWVRQAPGKGLEWVGRIKSKTDGGTTDYAAPVKGRFTISRDDSKNTLYLQMNSLKTEDTAVYYCARDFGRWGYYFDYWSQGTLVTVSS
notes: Chimeric antigen receptor expressed on primary human CD8+ T cells; tEGFR marker is split off by T2A; also called V353 CAR; not shown: Ig-derived hinge only spacer, human CD28-derived transmembrane domain, human 4-1BB-derived intracellular signaling domai
Regarding B12, in assay [13], the binding result is reported as “binds”.

B13: Clone V353 (VHH)
VHH: B12 chain
notes: as for B3
With B13, the half-maximal effective concentration (EC50) in assay [7] is 0.7 nM. In [8], the “% Max Binding” value is 35%. Besides, in assay [9], the IC50 came out at 0.4 nM. The “% Max Competition” value in assay [10] is 62%.

B14: Clone V18 (VHH)
VHH: B12 chain with T3Q, K5V, T80S, G106S, S113G
B14: in [7], the EC50 turned out to be 0.2 nM. In addition, the “% Max Binding” value in assay [8] was 37%. This molecule also yielded an IC50 in assay [17] of 3.4 nM. Further, the “% Max Competition” value in assay [10] was 54%.
